Measurements from patent US20060024786A1, “WASP and N-WASP constructs and methods of expressing such constructs” (Cytokinetics, Inc., priority 2004, published 2006).

Key:
Assay in all cases: cell-based or functional assay
[1] = target: full length human N-WASP (Myc-N-WASP-TAP) (human)
[2] = target: full length human WASP (Myc-WASP-TAP) (human)
Arp2/3 complex (human) = Arp2/3 complex (human) (UniProt P61158)

| Barbed ends % of max. (after subtracting baseline) [1] [%] | Barbed ends, nM (pyrene-actin polymerization assay) [1] [nM] | EC50, nM (activation of actin polymerization) [1] [nM] | Barbed ends % of max. (after subtracting baseline) [2] [%] | Barbed ends, nM (pyrene-actin polymerization assay) [2] [nM] | EC50, nM (activation of actin polymerization) [2] [nM] | activity relative to 105 WASP (actin polymerization, EC50 comparison) (Arp2/3 complex (human)) [times] | concentration giving maximal barbed ends (500 nM Cdc42, 2.5 nM Arp2/3, 3.5 uM actin) (Arp2/3 complex (human)) [nM] | potency relative to the VCA/WA domain (actin polymerization, EC50 comparison) (Arp2/3 complex (human)) [times] | Substance |
| --- | --- | --- | --- | --- | --- | --- | --- | --- | --- |
| 78 | 3.5 | 7 | 50 | 2.6 | 12 | – | – | – | GST_NCK2 |
| – | – | – | – | – | – | 20 | 3 | > 70 | full length human WASP (Myc-WASP-TAP) |
| – | – | 287 | – | – | 16 | – | – | – | N_GST_tev_Cdc42 GTP (bacterial GST tagged Cdc42 protein) (enzyme) |
